Experimental data as given in patent publication US20150158910A1 (Bristol-Myers Squibb, published 2015).

T1: human PAR4 (protease activated receptor 4) (human, UniProt Q96RI0 48-385)
T1 sequence (looked up): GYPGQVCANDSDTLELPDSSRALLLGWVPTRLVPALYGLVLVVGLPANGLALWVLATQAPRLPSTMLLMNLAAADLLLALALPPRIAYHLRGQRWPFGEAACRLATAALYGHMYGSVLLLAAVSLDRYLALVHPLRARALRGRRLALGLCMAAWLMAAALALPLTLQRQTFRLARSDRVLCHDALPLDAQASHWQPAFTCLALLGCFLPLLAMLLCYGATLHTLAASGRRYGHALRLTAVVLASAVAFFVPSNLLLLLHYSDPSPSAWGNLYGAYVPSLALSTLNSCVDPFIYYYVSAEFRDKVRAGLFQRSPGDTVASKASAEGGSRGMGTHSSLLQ

T2: PAR1 (protease activated receptor 1), endogenous in HEK293 cells (UniProt P25116 42-425, limits assumed)
T2 sequence (looked up): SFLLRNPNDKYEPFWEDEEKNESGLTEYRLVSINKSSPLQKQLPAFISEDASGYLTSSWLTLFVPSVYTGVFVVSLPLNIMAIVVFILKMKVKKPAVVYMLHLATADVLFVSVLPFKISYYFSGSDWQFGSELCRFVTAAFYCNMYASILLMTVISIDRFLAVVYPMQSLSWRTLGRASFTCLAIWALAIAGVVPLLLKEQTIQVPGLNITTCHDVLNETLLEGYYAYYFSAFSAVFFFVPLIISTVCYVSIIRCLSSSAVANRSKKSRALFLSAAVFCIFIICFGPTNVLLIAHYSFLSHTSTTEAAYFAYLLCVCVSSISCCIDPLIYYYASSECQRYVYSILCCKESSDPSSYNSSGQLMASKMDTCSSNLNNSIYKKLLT


Experiments:
[1] = target: T1, human PAR4 (protease activated receptor …); assay: cell-based or functional assay
[2] = target: T2, PAR1 (protease activated receptor 1), …; assay: cell-based or functional assay

| Binder | EC50 (µM) FLIPR Assay [1] [µM] | EC50, calcium mobilization (FLIPR/FDSS) in HEK293 PAR4 cells, PAR1 counter screen [2] [µM] |
| --- | --- | --- |
| AYPGWLVKNG (free N-terminus; C-terminal amide) [PAR4 agonist peptide SEQ ID NO: 2] | 4.8 | – |
| AYPG [Peptide SEQ ID NO: 10] | 600 | – |

The remaining lines, values ahead:

| EC50 (µM) FLIPR Assay [1] [µM] | EC50, calcium mobilization (FLIPR/FDSS) in HEK293 PAR4 cells, PAR1 counter screen [2] [µM] | Binder |
| --- | --- | --- |
| – | 0.6 | SFFLRR [SFFLRR (SEQ ID NO: 35)] |
| 159 | – | AYPGQVCAND [Peptide SEQ ID NO: 11] |
